Source: patent US20230167501

Biological target: T1, PEG10 gag
T1 chain: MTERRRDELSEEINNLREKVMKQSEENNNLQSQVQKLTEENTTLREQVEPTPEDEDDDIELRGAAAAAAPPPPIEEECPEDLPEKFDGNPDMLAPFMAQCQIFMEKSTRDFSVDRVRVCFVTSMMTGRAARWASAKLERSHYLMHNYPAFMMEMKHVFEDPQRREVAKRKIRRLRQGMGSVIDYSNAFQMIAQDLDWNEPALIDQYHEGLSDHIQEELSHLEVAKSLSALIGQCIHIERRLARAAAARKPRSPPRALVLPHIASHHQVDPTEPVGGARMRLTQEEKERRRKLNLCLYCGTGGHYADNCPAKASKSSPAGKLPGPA

B1: PEG10 gag-pol (protein)
chain: MTERRRDELSEEINNLREKVMKQSEENNNLQSQVQKLTEENTTLREQVEPTPEDEDDDIELRGAAAAAAPPPPIEEECPEDLPEKFDGNPDMLAPFMAQCQIFMEKSTRDFSVDRVRVCFVTSMMTGRAARWASAKLERSHYLMHNYPAFMMEMKHVFEDPQRREVAKRKIRRLRQGMGSVIDYSNAFQMIAQDLDWNEPALIDQYHEGLSDHIQEELSHLEVAKSLSALIGQCIHIERRLARAAAARKPRSPPRALVLPHIASHHQVDPTEPVGGARMRLTQEEKERRRKLNLCLYCGTGGHYADNCPAKASKSSPAGKLPGPAVEGPSATGPEIIRSPQDDASSPHLQVMLQIHLPGRHTLFVRAMIDSGASGNFIDHEYVAQNGIPLRIKDWPILVEAIDGRPIASGPVVHETHDLIVDLGDHREVLSFDVTQSPFFPVVLGVRWLSTHDPNITWSTRSIVFDSEYCRYHCRMYSPIPPSLPPPAPQPPLYYPVDGYRVYQPVRYYYVQNVYTPVDEHVYPDHRLVDPHIEMIPGAHSIPSGHVYSLSEPEMAALRDFVARNVKDGLITPTIAPNGAQVLQVKRGWKLQVSYDCRAPNNFTIQNQYPRLSIPNLEDQAHLATYTEFVPQIPGYQTYPTYAAYPTYPVGFAWYPVGRDGQGRSLYVPVMITWNPHWYRQPPVPQYPPPQPPPPPPPPPPPPSYSTL
presence of HA-tagged cleavage products by western blot after co-transfection: PEG10 gag-pol was capable of cleaving PEG10 gag in trans
